Measurements taken from patent EP4039268A1 (IMBA-Institut für Molekulare Biotechnologie GmbH, dated 2022).

B1: Clec2l CRD-mouse IgG2a-Fc fusion protein (Fc fusion)
chain: YGRKCYYFSEEPRDWNTGRQYCHTHEAALAVIQSQKELEFMFKFTRREPWIGLRRVGDDFHWVNGDPFDPDTFTISGMGECVFVEPTRLVSTECLTTRPWVCSGGGSGGGSGGGS
B2: Clec18a CRD-mouse IgG2a-Fc fusion protein (Fc fusion)
chain: IDGDCFMVSPEADTYYGAKMKCQGKGGVLAQIESQKVQDILAFYLGRLETTNEVTDSDFETKNFWIGLTYKAAKDSFRWTTGEHQSFTSFAFGQPDNQGFGNCVEMQASAAFNWNDQRCKTRNRYICQGGGSGGGSGGGS
B3: Colec10 CRD-mouse IgG2a-Fc fusion protein (Fc fusion)
chain: TEEKFYYIVQEEKNYRESLTHCRIRGGMLAMPKDEVVNTLIADYVAKSGFFRVFIGVNDLEREGQYVFTDNTPLQNYSNWKEEEPSDPSGHEDCVEMLSSGRWNDTECHLTMYFVCEGGGSGGGSGGGS
B4: Clec9a CRD-mouse IgG2a-Fc fusion protein (Fc fusion)
chain: NGKSCYYVFERWEMWNISKKSCLKEGASLFQIDSKEEMEFISSIGKLKGGNKYWVGVFQDGISGSWFWEDGSSPLSDLLPAERQRSAGQICGYLKDSTLISDKCDSWKYFICEGGGSGGGSGGGS
B5: Asgr1 CRD-mouse IgG2a-Fc fusion protein (Fc fusion)
chain: YEGSCYWFSSSVRPWTEADKYCQLENAHLVVVTSRDEQNFLQRHMGPLNTWIGLTDQNGPWKWVDGTDYETGFQNWRPEQPDNWYGHGLGGGEDCAHFTTDGRWNDDVCRRPYRWVCEGGGSGGGSGGGS
B6: Lgals4_1 CRD-mouse IgG2a-Fc fusion protein (Fc fusion)
chain: YKRPIPGGLSVGMSVYIQGMAKENMRRFHVNFAVGQDDGADVAFHFNPRFDGWDKVVFNTMQSGQWGKEEKKKSMPFQKGKHFELVFMVMPEHYKVVVNGNSFYEYGHRLPVQMVTHLQVDGDLELQSINFLGGGSGGGSGGGS
B7: Clec1a CRD-mouse IgG2a-Fc fusion protein (Fc fusion)
chain: YGDKCYQFYKESKNWQSCEYFCLADNATMLKISTQEELDFAMPQSYSEFFYSYWTGLSRNGSGKAWLWTDGTPYSFELFEIIIDPTNLRNRDCMTIFNGKAYSKDCKELRRCACEGGGSGGGSGGGS
B8: Clec3b CRD-mouse IgG2a-Fc fusion protein (Fc fusion)
chain: VNLKCLLAFTQPKTFHEASEDCISQGGTLGTPQSELENEALFEYARHSVGNDANIWLGLNDMAAEGAWVDMTGGLLAYKNWETEITTQPDGGKAENCAALSGAANGKWFDKRCRDQLPYICQGGGSGGGSGGGS
B9: Atrn CRD-mouse IgG2a-Fc fusion protein (Fc fusion)
chain: VGNSCLKITTAKENYDNAKLSCRNHNAFLASLTSQKKVEFVLKQLRLMQSSQSMSKLTLTPWVGLRKINVSYWCWEDMSPFTNSLLQWMPSEPSDAGFCGILSEPSTRGLKAATCINPLNGSVCEGGGSGGGSGGGS
B10: Clec4e CRD-mouse IgG2a-Fc fusion protein (Fc fusion)
chain: YQSSCYFFSTTTLTWSSSLKNCSDMGAHLVVIDTQEEQEFLFRTKPKRKEFYIGLTDQVVEGQWQWVDDTPFTESLSFWDAGEPNNIVLVEDCATIRDSSNSRKNWNDIPCFYSMPWICEGGGSGGGSGGGS
B11: Frem1 CRD-mouse IgG2a-Fc fusion protein (Fc fusion)
chain: HSGYCHILVTRQKGTWTTATRACREQHQGDLVTVLSRRHMQWLWAMSGRKPFWIGLKNQPRTGHWEWIGGEPVAFTNWRRGAPLHPKPGKNCALVQKRGQWQTKNCSKGKAHNFVGGGSGGGSGGGS
B12: Clec2d CRD-mouse IgG2a-Fc fusion protein (Fc fusion)
chain: VENKCFYFSEYPSNWTFAQAFCMAQEAQLARFDNQDELNFLMRYKANFDSWIGLHRESSEHPWKWTDNTEYNNTIPIRGEERFAYLNNNGISSTRIYSLRMWICSKLNSYSLHCQTGGGSGGGSGGGS
B13: Olr1 CRD-mouse IgG2a-Fc fusion protein (Fc fusion)
chain: HKENCYLFHGPFSWEKNRQTCQSLGGQLLQINGADDLTFILQAISHTTSPFWIGLHRKKPGQPWLWENGTPLNFQFFKTRGVSLQLYSSGNCAYLQDGAVFAENCILIAFSICQGGGSGGGSGGGS
B14: Dgcr2 CRD-mouse IgG2a-Fc fusion protein (Fc fusion)
chain: CPSGWHHYEGTASCYRVYLSGENYWDAAQTCQRVNGSLATFSTDQELRFVLAQEWDQPERSFGWKDQRKLWVGYQYVITGRNHSLEGRWEVAFKGSPEVFLPPDPIFASAMSENDNVFCAQLQCFHFGGGSGGGSGGGS
B15: Chodl CRD-mouse IgG2a-Fc fusion protein (Fc fusion)
chain: VKHPCYKMAYFHELSSRVSFQEARLACESEGGVLLSLENEAEQKLIESMLQNLTKPGTGISDGDFWIGLLRSGDGQTSGACPDLYQWSDGSSSQFRNWYTDEPSCGSEKCVVMYHQPTANPGLGGPYLYQWNDDRCNMKHNYICKGGGSGGGSGGGS
B16: Acan CRD-mouse IgG2a-Fc fusion protein (Fc fusion)
chain: not shown
B17: Colec11 CRD-mouse IgG2a-Fc fusion protein (Fc fusion)
chain: TESKIYLLVKEEKRYADAQLSCQARGGTLSMPKDEAANGLMASYLAQAGLARVFIGINDLEKEGAFVYSDRSPMQTFNKWRSGEPNNAYDEEDCVEMVASGGWNDVACHITMYFMCEGGGSGGGSGGGS
B18: Clec3a CRD-mouse IgG2a-Fc fusion protein (Fc fusion)
chain: VHKKCYLASEGLKHYHEANEDCISKGGTLVVPRNSDEINALRDYGKRSLPGVNDFWLGINDMVTEGKFLDVHGFAVSFLNWDRAQPSGGKRENCVLFSQSAQGKWSDEACRSSKRYICEGGGSGGGSGGGS

Experiments:
[1] = molecular target: T1, human recombinant soluble ACE2 (human, UniProt Q9BYF1 18-740); experiment: ELISA screen
T1 construct: also called hrsACE2

[2] = molecular target: T2, full-length trimeric SARS-CoV-2 Spike protein (Spike-H6) (SARS-CoV-2, N-glycosylated (22 N-glycosylation sites)); experiment: ELISA screen
T2 construct: also called trimeric Spike; full-length Spike-H6

[3] = molecular target: T3, monomeric SARS-CoV-2 receptor binding domain (RBD-H6) (SARS-CoV-2, UniProt P0DTC2 319-541); experiment: ELISA screen
T3 construct: Made in HEK293-6E cells; also called RBD Spike; monomeric RBD

[4] = molecular target: T1, human recombinant soluble ACE2; experiment: ELISA

Binder	Mean normalized OD [1]	Mean normalized OD [2]	Mean normalized OD [3]	binding result [4]
B1	0 OD	-0.001 OD	0 OD	no binding (tested: 10 µg/ml)
B2	-0.013 OD	0.022 OD	0 OD	
B3	0.185 OD	0.036 OD	0.008 OD	no binding (tested: 10 µg/ml)
B4	0.222 OD	0.029 OD	0.062 OD	no binding (tested: 10 µg/ml)
B5	0.004 OD	0.121 OD		no binding (tested: 10 µg/ml)
B6	0.2 OD	0.152 OD		no binding (tested: 10 µg/ml)
B7	-0.006 OD	-0.005 OD	0.01 OD	
B8	0.001 OD	0.001 OD	0 OD	no binding (tested: 10 µg/ml)
B9	0.002 OD	0.002 OD	0.001 OD	no binding (tested: 10 µg/ml)
B10	0.222 OD	0.037 OD	0.022 OD	no binding (tested: 10 µg/ml)
B11	0.028 OD	0.03 OD	0.013 OD	no binding (tested: 10 µg/ml)
B12	-0.506 OD	-0.106 OD	0.024 OD	
B13	0.116 OD	0.083 OD		no binding (tested: 10 µg/ml)
B14	0.012 OD	0.005 OD	0.003 OD	no binding (tested: 10 µg/ml)
B15	-0.001 OD	0.002 OD	0.001 OD	
B16	0.081 OD	0.023 OD	0.035 OD	no binding (tested: 10 µg/ml)
B17	0.153 OD	0.043 OD	0.013 OD	no binding (tested: 10 µg/ml)
B18	0.045 OD	0.098 OD	0.039 OD	no binding (tested: 10 µg/ml)
